This note sets out measurements from PMC10602924.

Among the targets are SerRS deltaUNE-S (human, UniProt P49591 1-469); SerRS WT (human, UniProt P49591 1-514); SerRS T429A (human, UniProt P49591 1-514, T429A).
Experiment in all cases: EMSA

Chain of SerRS WT (P49591 whole entry): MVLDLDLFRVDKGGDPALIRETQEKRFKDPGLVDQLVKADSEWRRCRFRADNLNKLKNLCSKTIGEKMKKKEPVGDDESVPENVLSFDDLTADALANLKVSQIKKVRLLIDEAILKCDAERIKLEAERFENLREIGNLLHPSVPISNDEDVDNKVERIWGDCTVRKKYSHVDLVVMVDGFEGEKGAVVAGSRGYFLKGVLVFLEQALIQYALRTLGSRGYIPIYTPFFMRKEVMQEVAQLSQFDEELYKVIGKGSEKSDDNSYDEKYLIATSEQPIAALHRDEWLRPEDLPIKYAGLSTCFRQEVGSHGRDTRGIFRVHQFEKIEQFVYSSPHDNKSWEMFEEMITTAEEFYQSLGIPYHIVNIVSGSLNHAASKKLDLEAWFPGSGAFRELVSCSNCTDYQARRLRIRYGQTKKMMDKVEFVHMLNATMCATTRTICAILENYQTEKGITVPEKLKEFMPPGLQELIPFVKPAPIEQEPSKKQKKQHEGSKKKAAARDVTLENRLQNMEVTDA
Chain of SerRS T429A (P49591 whole entry T429A): as the sequence (P49591 whole entry) above, with T429A counted along it
Chain of SerRS deltaUNE-S (P49591 1-469, stated change not applied): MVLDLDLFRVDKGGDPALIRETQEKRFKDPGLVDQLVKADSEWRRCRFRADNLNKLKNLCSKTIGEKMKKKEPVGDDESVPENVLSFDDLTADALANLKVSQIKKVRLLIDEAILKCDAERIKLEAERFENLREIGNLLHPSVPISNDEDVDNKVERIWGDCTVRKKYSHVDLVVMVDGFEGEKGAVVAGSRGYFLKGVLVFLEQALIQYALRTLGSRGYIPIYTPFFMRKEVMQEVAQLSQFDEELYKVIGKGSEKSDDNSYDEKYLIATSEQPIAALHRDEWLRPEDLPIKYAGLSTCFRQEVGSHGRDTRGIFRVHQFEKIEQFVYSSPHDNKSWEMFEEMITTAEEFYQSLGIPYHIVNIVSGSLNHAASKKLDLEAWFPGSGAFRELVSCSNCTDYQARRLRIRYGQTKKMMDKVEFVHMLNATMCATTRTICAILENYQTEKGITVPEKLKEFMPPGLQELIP

B1: VEGFA 3'UTR WT RNA (ssRNA)
RNA: UGAGCCGGGCAGGAGGAAGGAGCCUCCCUCAGGGUUUCGGGAACCAGAUCUCUCACCAGGAAAGACUGA
For the molecule B1, the binding result is recorded as “no binding” with SerRS deltaUNE-S, “binds” with SerRS WT and “binds” with SerRS T429A.
With UCAAAUGGAGCACCUGUUCCAUAUGUACGA (ssRNA) [MSH2 S612X RNA], the binding result with SerRS WT was “binds”.
